Test results from the nanobody polyreactivity screen of Harvey et al. (2022).

Assay: yeast display, Sf9 membrane polyspecificity reagent, FACS + sequencing; frameworks hold sequencing errors
Outline: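 Nanobodies from a synthetic yeast display library (Saccharomyces cerevisiae BJ5465), induced 36–48 hours with galactose, were stained 1 hour at 4 °C with 10% biotinylated, detergent-solubilized Sf9 membrane reagent, enriched on streptavidin microbeads, then FACS-sorted. Anti-HA (expression) and streptavidin (reagent binding) fluorescence set low and high (top ~1%) gates. Polyreactivity labels come from the gate of origin. Genes were colony-PCR amplified, MiSeq 2 × 250 sequenced and filtered by CDR length.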

QVQLVESGGGLVQAGGSLRLSCAPSGRIFTGYAMGWYRPEPGQEWELVAASTSSGGSTYYADSVKGRVTISRDYAKNTVYLQMNSLKPEDTAVYYCNKVGRPRYNYWGQGTEVTVSS
polyreactivity (PSR sort gate): high polyreactivity

QVQLVESGGGLVQAGGSLRLSCAPSGRIIFYNAMGWYRQAPGKERELVAAISIGGRTYYADSVKGRFTISRDNAKNTVYLQMNSLKPEDTAVYYCAALGYPYLRSGYWGQGTQVTVSS
polyreactivity (PSR sort gate): high polyreactivity

QVQLVESGGGLVQAGGSLRLSCAPSGRIILRYTMGRYRQARGKERQLVAAISARTTGTYYADSVKGRFTISRDNAKNTFYLQLNSLKPEDTAVYYCAAKCKLSRVLYSWGQGTQVTVSS
polyreactivity (PSR sort gate): low polyreactivity

QVQLVESGGGLVQAGGSLRLSCAPSGRSFASYAMGWYRQAPGKERELVAAISKSGGRTYYADSVKGRFTISRDNAKNTVYLQMNSLKPEDTAVYYCAAYFWTRSGTPNYDYWGQGTQVTVSS
polyreactivity (PSR sort gate): high polyreactivity

QVQLVESGGGLVQAGGSLRLSCAPSGRTFLAYAMGWYRQAPGKEREVVAAISSSGSTTYYADSVKGRFTISRDNAKNTVYLQMNSLKPEDTAVYYCAASNGYRSSYYRYDYWGQGTQVTVSS
polyreactivity (PSR sort gate): low polyreactivity

QVQLVESGGGLVQAGGSLRLSCAPSGRTFQQYAMGCYRQAPGKDREFVAAITFSGGTTYFADSVKGRFTISRDNAKNTVYFQMNSLKPEDTAVYYCAADIYYWSFYYSRYDYWGQGTQVTVSS
polyreactivity (PSR sort gate): high polyreactivity

QVQLVESGGGLVQAGGSLRLSCAPSGRTFSVNDMGWYRQAPGKERELVAAISFSGGSTYYADSVKGRFTISRDNAKNTVYLQMNSLKPEDTAVYYCAAEAYPSWFYVITGFGIYDYWGQGTQVTVSS
polyreactivity (PSR sort gate): high polyreactivity

QVQLVESGGGLVQAGGSLRLSCAPSGRTFWTNAMGWYRQAPGKERELVAAIRNSGGRTYYADSVKGRFTISRDNAKNTVFLQMNSLKPEDSAVYYCNARSSIRPRQGGYEHWGQGTQVTVSS
polyreactivity (PSR sort gate): low polyreactivity

QVQLVESGGGLVQAGGSLRLSCAPSGRTLFHYAMGWYRQAPGKERELVAAISSGGRTNYADSVKGRFTISRDNAKNTVYLQMNSLKPEDTAVYYCAARRFYLQHGFEYWGQGTQVTVSS
polyreactivity (PSR sort gate): high polyreactivity

QVQLVESGGGLVQAGGSLRLSCAPSGRTVRYNAMGWYRQAPGKERELVARITWSGGRTYYADSVKGRFTISRDNAKNTVYLQMNSLKPEDTAVNYGNAPSIAGYAEYNSHDYWGQGTQVTVSS
polyreactivity (PSR sort gate): high polyreactivity

QVQLVESGGGLVQAGGSLRLSCAPSGSIFDYYVRGWSRQAPGKERELVAAISWSGASTYYADSVKGRFTISRDNAKNTVYLQITSLKPEDTAVYYCAADYGVNTLIDYDYWGQGTQVTVSS
polyreactivity (PSR sort gate): low polyreactivity

QVQLVESGGGLVQAGGSLRLSCAPSGSIFERYAMGWYRHAPGKERELVAAISWRGGSTYYADSVKGRFTISRDNAKNTVYLQMNSLIQEDTAVYYCAADSRTCYYYWGQGTQVTVST
polyreactivity (PSR sort gate): high polyreactivity

QVQLVESGGGLVQAGGSLRLSCAPSGSIFGGYAMGWYRQAPGKERELVAAITWGGGSTYYADSVKGRFTISRDNAKNTVYLQMISLKPEATAVYYCAADRSWYDWEDDYWGQGTQVTVSS
polyreactivity (PSR sort gate): low polyreactivity

QVQLVESGGGLVQAGGSLRLSCAPSGSIFNRNVMGWYRQAPGKERELVAAITRGGRTSYADSVKGRFTISRDNAKNTVYLQMNSLKPEDTAVYYCAARRGYWVVYWGQGTQVTVSS
polyreactivity (PSR sort gate): high polyreactivity

QVQLVESGGGLVQAGGSLRLSCAPSGSIFPSYAMGWYRQAPGKERELVAAISRSAGSTYYADSVKGRFTISRDNAKNTVYLQMNSLKPEDTAVYYCAADGYSSRYGYDYWGQGTQVTVSS
polyreactivity (PSR sort gate): low polyreactivity

QVQLVESGGGLVQAGGSLRLSCAPSGSIFRGYTMGWYRQAPVKERELVAAISWSGGSTYYADSVKGRFTISRDNAKNTVYLQMNSLKPEDTAVYYCAAGDYYHRIFLWYDFWGQGTQVNVSS
polyreactivity (PSR sort gate): low polyreactivity

QVQLVESGGGLVQAGGSLRLSCAPSGSIFSYYDMGGYRQAPGKERELVAGISRGGSTNYADSVKGRFTISRDNAKNTVYLQMNSLKPEDTAVYYCNADQSSRTFPFRLSRRSWLYGYWGQGSQVTVSS
polyreactivity (PSR sort gate): low polyreactivity

QVQLVESGGGLVQAGGSLRLSCAPSGSIFYINAMAWYRQAPGKERELVAAITSDGSTYYADSVKGRFTISRDNAKNTVYLQMNSLKPVDTAVYYFAADMTSDQYLYYWYWFYSWGQGTQVTVSS
polyreactivity (PSR sort gate): low polyreactivity

QVQLVESGGGLVQAGGSLRLSCAPSGSIFYVYARGWYRQAPGKERQLVATIPRVGRTYYADSVKGRFTISRDNAKNTVYLQRNSLKPEDTAVYYCATRYGGRSYKYDYWGQGTQVTVSS
polyreactivity (PSR sort gate): high polyreactivity

QVQLVESGGGLVQAGGSLRLSCAPSGSIVRGYAMAWYRQAPGKERELVAAINSSGTRTYYADSVKGRFTISRDNAKNTVYFQLYSLKPEDSAVYYCAARAVSEYFVVPFYYWGQGTQVTVSS
polyreactivity (PSR sort gate): high polyreactivity

QVQLVESGGGLVQAGGSLRLSCAPSGSTFEHYTMGWYRQAPGKERELVAAISRRGGRTYYADSVKGRFTISRDNAKNTVYLQMNSLKPEDTAVYYCNAPVYTRKSIDYDYCGQGTQVTVSS
polyreactivity (PSR sort gate): high polyreactivity

QVQLVESGGGLVQAGGSLRLSCAPSGSTFFWYSMGWYRQAPGKERELVARISRRSGSTYYADSVKGRFTISRDNAKNTVYLQMNSLIPEDTAVYYCNARAVGAPGSVRYDYWGQGTQVTVSS
polyreactivity (PSR sort gate): low polyreactivity

QVQLVESGGGLVQAGGSLRLSCAPSGSTFLSYVMGWYRQAPGKERELVAAITGTGGRTYYADSVKGRFTISRDNAKNTVYLQMNCLKTEDTAVYYCTAYRNHGYDYWGQGTQVTVSS
polyreactivity (PSR sort gate): high polyreactivity

QVQLVESGGGLVQAGGSLRLSCAPSGSTFRTYTMGWYIQAPGKERELVAAITGRGGSTYYADSVKGRFTISRDTAKNTVYFQMNSLKREDTAVYYCAALYGGQTKHDFWGQGTQVTVSS
polyreactivity (PSR sort gate): low polyreactivity

QVQLVESGGGLVQAGGSLRLSCAPSGSTFYSYVMGWYRQATGKERELVAVISNDGSTNYADSVKGRFTISRDNAKNTVYLQMNSLKPEDTAVYYCAALKFVRAYRYYYWGQGTQVTVSS
polyreactivity (PSR sort gate): low polyreactivity

QVQLVESGGGLVQAGGSLRLSCAPSGSTINQYAMGWYRQAPGKESELVAAITRRGGSTYYADSVKGRFTISRDNAKNTVYLQMNSLKPEDTAVYYCAAAYPYTTVSYDYWGQGTQVTVSS
polyreactivity (PSR sort gate): high polyreactivity

QVQLVESGGGLVQAGGSLRLSCAPSGSTIVRYAMGWYRQAPGKERELVAAISGSGGTTYYADSVKGRFTISRDNAKNTVYLQMNSLKPEDTAVYYCATRISAMDYWGQGTQVTVSS
polyreactivity (PSR sort gate): high polyreactivity

QVQLVESGGGLVQAGGSLRLSCAPSGSTLYRNAMGWYRQAPGQDRELVAAINYRGTRTYDADSVKGRFTISRDTAKNTVYLQMNSLQPEDTAVYFCAKDYSQFVTYPYDYWGQGTQVTVSS
polyreactivity (PSR sort gate): low polyreactivity

QVQLVESGGGLVQAGGSLRLSCASSGFIFSSYAMGWYRQAPGKERELVAAISLRSTTTYYADSVKGRFTISRDNAKNSVYLQMNSLKPEDTAVDYCAKGGSRDRYGYWGQGTQVTVSS
polyreactivity (PSR sort gate): high polyreactivity

QVQLVESGGGLVQAGGSLRLSCASSGFIFWYYAMGWYRQAPGKERELVAAISSGDSKNYADSVKGRFTISRDNAKNTVYLQMNCLKPEDTAVYYCAARQPRTQAVYEGYYWGHGTQVTVSS
polyreactivity (PSR sort gate): high polyreactivity

QVQLVESGGGLVQAGGSLRLSCASSGFIIYSYAMGWYRQAPGKERELVAVISSRGGTTYYADSVKGRFTISRDNAKNTVYLQMNSLKPEDTAVYYCAADVWGPYDYWGQGTQVTVSS
polyreactivity (PSR sort gate): low polyreactivity

QVQLVESGGGLVQAGGSLRLSCASSGFTFGYYTKGWYRQAPGKERELVAAITSGGGTYYADSVKGRFTISRDNAKNTVYLQMKSLKPEDTAVYYCATTPGLYKVSSRYGYWGQGTQVTVSS
polyreactivity (PSR sort gate): high polyreactivity

QVQLVESGGGLVQAGGSLRLSCASSGFTFTANDMGWYRKAPGKERELVAAISWSGDSTYYADSVKGRFTISRDNAKNTVYLQMNRLIPEDTAVYYCNVVFEFLSDGYYSYDYWVQGTQVTVSS
polyreactivity (PSR sort gate): low polyreactivity

QVQLVESGGGLVQAGGSLRLSCASSGFTFYKYAMGWYRQAPGKERELVAAITRGDSTYYADSVKGRFTISRDNAKNTVYLQMNSLKPEDTAVYYCNAVFSYRLFNYWGQGTQVTVSS
polyreactivity (PSR sort gate): high polyreactivity

QVQLVESGGGLVQAGGSLRLSCASSGFTFYSYAMGWYRQAPGKERELVAAISKRGGSTYYADSVKGRFTISRDNAKNTVYLQMNSLQPEDTAVYYCNADYPYYYGYDYWGQGTQVTVSS
polyreactivity (PSR sort gate): high polyreactivity

QVQLVESGGGLVQAGGSLRLSCASSGFTLYANAMGGYRQAPGKERELVADISESGSSTSYADSVKGRFTISRDNAKNTVYLQMKSLKPEDTAVYYCYDYWVQGTQVTVSS
polyreactivity (PSR sort gate): low polyreactivity

QVQLVESGGGLVQAGGSLRLSCASSGFTSWDNDMGWYRQAPGKERELVAAISRGGSTNYADSVKGRFTISRDNAKDTVYLQMNSLKPVDTAVYYCNADFAPWDKQDYPYDYDYWGQGTQVTVSS
polyreactivity (PSR sort gate): low polyreactivity

QVQLVESGGGLVQAGGSLRLSCASSGFTYGTNAMVWYRQAPGKERELVAAISSRGGSTYYADSVKGRFTISRDNAKNTVYLLMNSLKPEDTAVYYCARRVARRQHEYGYWGQGTQVTVSS
polyreactivity (PSR sort gate): high polyreactivity

QVQLVESGGGLVQAGGSLRLSCASSGGIFASNVMGWYRQAPGKERELVAAISSITGSTYYADSVKGRFTISRDNAKNTVYLQMNSLKPEDTAVYYCAAYVQFAKIRFDYWGQGTQVTVSS
polyreactivity (PSR sort gate): high polyreactivity

QVQLVESGGGLVQAGGSLRLSCASSGGTLFQNAMGWYRQAPGKESELVATIRVSGGITYYADSVKGRFTISRDNAKNTVYFQMNSLNPEDTAVYYCAKDSADSRAVGDVMTFDYWGQGTQVTVSS
polyreactivity (PSR sort gate): low polyreactivity

QVQLVESGGGLVQAGGSLRLSCASSGITFAKNAMGRYRQAPGKERELVAVITNTNYADSVKGRFTISRDNAKNTVYLQMNSLKPEDTAVYYCAVDGYGWYFARSWLRYYYWGQGTQVTVSS
polyreactivity (PSR sort gate): low polyreactivity

QVQLVESGGGLVQAGGSLRLSCASSGITFRRYTMVWYRQAPGKERELVAAISRIGGSTYYADSVKGRFTISRDNAKNTVYLQMNSLKPEDTAVYYCATYYGGSGYDYWGQGTEVTVSS
polyreactivity (PSR sort gate): high polyreactivity

QVQLVESGGGLVQAGGSLRLSCASSGITLRYYAMGWYRQAPGKERELVAAISSGGRTKYADSVKGRFTISRDNAKNTVYLQMNSLKPENTAVSYCGARKPYVTHTIDVLQAHDYWGQGTQVTVSS
polyreactivity (PSR sort gate): high polyreactivity
